Source: patent publication US5712366, “Fabrication of nanoscale materials using self-assembling proteins” (The United States of America as represented by the …, dated 1998)

Tests used:
[1] = molecular target: T1, polypeptide C2 (amino acid sequence of FIG. 4C); assay: surface plasmon resonance, one species immobilized onto a gold film
T1 chain: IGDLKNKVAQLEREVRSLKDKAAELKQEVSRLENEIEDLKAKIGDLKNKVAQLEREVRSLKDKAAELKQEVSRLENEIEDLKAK
Method: Next, the interaction of polypeptide A2 with polypeptides B2 and C2, when both of the components were free in solution and when one species was immobilized onto a gold film, was examined. The immobilization tests were performed to measure the rates of association and dissociation between the complexes. Surface plasmon resonance was used to detect minute changes in refractive index that accompanied a specific binding event in the immediate vicinity of the metal surface. […] After an initial increase in refractive index due to solvent exchange, it is seen that the rate of association for the A2-B2 complex was more rapid and that the equilibrium response was achieved sooner. […] For the A2-C2 interaction, kass=3.46×10^3, kdiss=[…], and K_a=1.45×10^6.

[2] = molecular target: T2, polypeptide B2 (amino acid sequence of FIG. 4B); assay: turbidity at 400 nm on mixing at equal concentrations; gel analysis of the precipitate
T2 chain: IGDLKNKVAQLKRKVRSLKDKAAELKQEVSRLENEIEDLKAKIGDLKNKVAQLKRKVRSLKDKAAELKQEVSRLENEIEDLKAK
Source text: First, the interaction between polypeptides A2 and B2 was investigated using turbidity measurements at 400 nm. […] When the polypeptides were mixed at equal concentrations, a rapid increase in turbidity was seen. This was attributed to specific heterodimer formation, which subsequently associated into higher order structures that precipitated in solution. […] No similar increase in the turbidity of the homodimer solutions was observed prior to mixing.

B1: polypeptide A2 (amino acid sequence of FIG. 4A) (designed binder)
chain: IGDLENEVAQLEREVRSLEDEAAELEQKVSRLKNEIEDLKAEIGDLENEVAQLEREVRSLEDEAAELEQKVSRLKNEIEDLKAE
binding result [1]: binds | binding result [2]: binds
